Holding throughout (type): biochemical
Test [1] is described as follows: Activity assay on insoluble substrate: [C2mim][OAc] pretreated corn stover. The conditions noted are these: pCorn stover. The source says: (§1) Corn stover refers to stalks, leaves and cobs that remain in the fields after the corn kernel harvest and is the largest quantity of biomass residue in the United States and as such is also a LC-biomass source for producing cellulosic ethanol in the United States. [C2mim][OAc] pretreated corn stover is used as a substrate to verify enzymatic efficiency on IL-pretreated biomass and a comparison made with [C2mim][OAc] pretreated Avicel. Avicel is a commercially available microcrystalline cellulose and a good model substrate for analysis. Similar assays are done in the presence of [C2mim][OAc] to simulate real biomass processing and saccharification scenarios. The assay products for the reactions in the presence of IL are detected by high performance anion exchange chromatography (HPAEC). The enzymatic hydrolysis reaction is carried out for 8 h for the T. viride cellulase and 15 h for the hyperthermophilic enzymes, taking into account the half-lives of these enzymes. To compare the amounts of total sugars formed between different reactions, the sum of glucose, xylose and cellobiose are calculated and reported as mmoles of sugars formed per min per mg of enzyme used (Table 7). A comparison of assay results between pretreated and untreated substrate indicates a 2-6 fold increase in hydrolysis products after pretreatment irrespective of the enzyme used, thereby confirming that IL pretreatment can increase the efficiency of hydrolysis of cellulose recovered from biomass. […] The catalytic efficiency of the fungal enzyme however, decreases with increasing IL concentration in the reaction mix. After normalizing for the reaction time and enzyme amounts, the amount of sugars formed is undetectable at 15% [C2mim][OAc]. […] The yield of sugars from Tma Cel5A hydrolysis of pretreated Avicel in the presence of 15% IL decreases by 43% compared to 0% IL, while the decrease is only 10% in the case of Pho EG on the same substrate under similar conditions (Table 7).
(§2) The hydrolysis reactions are performed under pH and temperatures for each enzyme as described herein. The reactions are run over a 14 h period with 5-10 mg of enzyme with 6% (w/v) enzyme loading in optimum buffer for each enzyme and run in duplicate. The reaction products are measured on a HPLC and HPAEC. The amounts of sugars detected are shown in mmoles and normalized with regards to amount of enzyme and time of reaction. Different reactions under each enzyme were run under exactly similar conditions.
(§3) [C2mim][OAc] (1 kg, as received, <0.2% moisture specified) is heated to 130° C. in a 1.5 L glass reaction vessel with mechanical stirring and 8% w/w (corn stover, 4.8% moisture) or 10% w/w (Avicel PH-101, 3% moisture). After around 3 h when the majority (corn stover) or all (Avicel) has dissolved, the dissolved corn stover or Avicel is allowed to cool to below 80° C. and is added to 2 L of 95% ethanol with rapid agitation to induce the precipitation of dissolved materials. The resulting slurry is filtered under pressure through polypropylene filter cloth and the solids redispersed in 2 L of additional ethanol. The filtration and redispersion steps are repeated twice to remove most residual ionic liquid and the filter cake dried under vacuum at 40° C. to yield a free-flowing powder product. Residual free ionic liquid remaining in the dried biomass is estimated to be less than 4% (w/w).
(§4) Enzymatic activity is measured on soluble polysaccharide substrates, CMC, using the 3,5-dinitrosalicylic acid (DNS) reducing sugar assay. Briefly, 2% CMC (w/v) in […] acetate buffer, (100 mM, pH 4.5 and pH 4.8 for T. viride and Tma, respectively, and 100 mM MES buffer, pH 6.4 for P. hori EG) is incubated at 80° C. for 30 min for Tma Cel5A and Pho enzymes and 37° C. and 10 min for T. viride. The solution is cooled down to 4° C. and […] of DNS solution is added. The reactants are incubated at 95° C. for 5 min and cooled down to room temperature before the absorbance is read at 540 nm. […]

The nature of test [2]: Activity assay on insoluble substrate: corn stover.
Text: as §1, §2
(§5) Enzymatic activity is measured on soluble polysaccharide substrates, CMC, using the 3,5-dinitrosalicylic acid (DNS) reducing sugar assay. Briefly, 2% CMC (w/v) in […] acetate buffer, (100 mM, pH 4.5 and pH 4.8 for T. viride and Tma, respectively, and 100 mM MES buffer, pH 6.4 for P. hori EG) is incubated at 80° C. for 30 min for Tma Cel5A and Pho enzymes and 37° C. and 10 min for T. viride. The solution is cooled down to 4° C. and […] of DNS solution is added. The reactants are incubated at 95° C. for 5 min and cooled down to room temperature before the absorbance is read at 540 nm. The reducing sugar concentration in the sample is calculated from its absorbance using the standard curve of D-glucose and cellobiose. For hydrolysis reactions in the presence of [C2mim][OAc], control reactions with CMC in the presence of IL but without no enzyme is subtracted from each measurement. The solid substrate (Avicel and corn stover) hydrolysis reactions are conducted at 80° C. for 15 h for the recombinant enzymes and at 37° C. for 8 h in the case of T. viride cellulose at the optimum pH for each enzyme. The reaction products are monitored using an Agilent 1200 HPLC equipped with Varian 380-LC Evaporative Light Scattering Detector. The total reaction volumes are […] and shaken at 900 rpm at temperature controlled shakers. Enzyme loadings are 0.4 mg per g of glucan and each data point is measured in triplicate. […]

The nature of test [3]: Enzyme stability: overnight pre-incubation in [C2mim][OAc] and half-life. Conditions: pre-incubation overnight (15 h) in 15% [C2mim][OAc].
Test [4] can be described thus: Activity assay on insoluble substrate: Avicel.
Text: as §1, §2, §5

Test [5] is described as follows: Activity assay on insoluble substrate: [C2mim][OAc] pretreated Avicel. The conditions noted are these: for decrease of the yield of sugars from hydrolysis of pretreated Avicel: 15% IL compared to 0% IL; for Sugars produced (sum of glucose, cellobiose and xylose): pAvicel.
Text: as §1, §2, §3, §4

The results in this text go back to US9322042B2, “Thermostable cellulases, and mutants thereof, capable of hydrolyzing cellulose in ionic liquid” (The Regents of the University of California, priority 2009, dated 2016).

B1: Tma Cel5A: wild-type cellulase of Thermatoga maritima strain MSB8 (Accession No. NP_229549); SEQ ID NO: 20 (protein, listed as Thermotoga maritima)
chain: MGVDPFERNKILGRGINIGNALEAPNEGDWGVVIKDEFFDIIKEAGFSHVRIPIRWSTHAYAFPPYKIMDRFFKRVDEVINGALKRGLAVVINIHHYEELMNDPEEHKERFLALWKQIADRYKDYPETLFFEILNEPHGNLTPEKWNELLEEALKVIRSIDKKHTIIIGTAEWGGISALEKLSVPKWEKNSIVTIHYYNPFEFTHQGAEWVEGSEKWLGRKWGSPDDQKHLIEEFNFIEEWSKKNKRPIYIGEFGAYRKADLESRIKWTSFVVREMEKRRWSWAYWEFCSGFGVYDTLRKTWNKDLLEALIGGDSIE
On to B1, for which the “Sugars produced (sum of glucose, cellobiose and xylose)” value (from here on “Sugars produced”) in test [1] (0% [C2mim][OAc]) was 9 ± 1 µmol/min/mg; in test [1] (5% [C2mim][OAc]), 8 ± 0.9 µmol/min/mg; in test [1] (10% [C2mim][OAc]), 7 ± 1 µmol/min/mg; in test [1] (15% [C2mim][OAc]), 5.9 ± 1^ μmoles min^−1 mg^−1; in test [2] (0% [C2mim][OAc]) it was 3 ± 0.9 µmol/min/mg; in test [2] (5% [C2mim][OAc]), 2 ± 0.3 µmol/min/mg. Moreover, the “Sugars produced” value came out at 2.4 ± 0.8 µmol/min/mg in test [2] (10% [C2mim][OAc]); 2.3 ± 0.5 µmol/min/mg in test [2] (15% [C2mim][OAc]); 1.1 ± 0.1 µmol/min/mg in test [4] (0% [C2mim][OAc]); 1.0 ± 0.2 µmol/min/mg in test [4] (5% [C2mim][OAc]); 0.9 ± 0.1 µmol/min/mg in test [4] (10% [C2mim][OAc]); 0.6 ± 0.1 µmol/min/mg in test [4] (15% [C2mim][OAc]). For the same molecule, the “Sugars produced” value is 6.6 ± 0.8 µmol/min/mg in test [5] (0% [C2mim][OAc]), 6 ± 0.5 µmol/min/mg in test [5] (5% [C2mim][OAc]), 5.7 ± 1^ μmoles min^−1 mg^−1 in test [5] (10% [C2mim][OAc]) and 4 ± 0.5 µmol/min/mg in test [5] (15% [C2mim][OAc]). Also, the “activity retained after pre-incubation” value in test [3] is on record as 44%. In addition, in test [5], the “decrease of the yield of sugars from hydrolysis of pretreated Avicel” value is recorded as 43%.

B2: Pho EG: cellulase of Pyrococcus horikoshii strain OT3 (Accession No. NP_143072); SEQ ID NO: 21 (protein, listed as Pyrococcus horikoshii)
chain: MEGNTILKIVLICTILAGLFGQVVPVYAENTTYQTPTGIYYEVRGDTIYMINVTSGEETPIHLFGVNWFGFETPNHVVHGLWKRNWEDMLLQIKSLGFNAIRLPFCTESVKPGTQPIGIDYSKNPDLRGLDSLQIMEKIIKKAGDLGIFVLLDYHRIGCTHIEPLWYTEDFSEEDFINTWIEVAKRFGKYWNVIGADLKNEPHSVTSPPAAYTDGTGATWGMGNPATDWNLAAERIGKAILKVAPHWLIFVEGTQFTNPKTDSSYKWGYNAWWGGNLMAVKDYPVNLPRNKLVYSPHVYGPDVYNQPYFGPAKGFPDNLPDIWYHHFGYVKLELGYSVVIGEFGGKYGHGGDPRDVIWQNKLVDWMIENKFCDFFYWSWNPDSGDTGGILQDDWTTIWEDKYNNLKRLMDSCSKSSSSTQSVIRSTTPTKSNTSKKICGPAILIILAVFSLLLRRAPR
In the case of B2, the “Sugars produced” value was 2.14 ± 0.1 µmol/min/mg in test [1] (0% [C2mim][OAc]); 2.2 ± 0.14 µmol/min/mg in test [1] (5% [C2mim][OAc]); 2.0 ± 0.2 µmol/min/mg in test [1] (10% [C2mim][OAc]); 1.9 ± 0.1 µmol/min/mg in test [1] (15% [C2mim][OAc]); 0.58 ± 0.1 µmol/min/mg in test [2] (0% [C2mim][OAc]); 0.59 ± 0.1 µmol/min/mg in test [2] (5% [C2mim][OAc]). Further, the “Sugars produced” value in test [2] (10% [C2mim][OAc]) came out at 0.57 ± 0.1 µmol/min/mg; in test [2] (15% [C2mim][OAc]) it was 0.59 ± 0.1 µmol/min/mg; in test [4] (0% [C2mim][OAc]) it was 0.54 ± 0.1 µmol/min/mg; in test [4] (5% [C2mim][OAc]) it was 0.5 ± 0.1 µmol/min/mg; in test [4] (10% [C2mim][OAc]) it was 0.52 ± 0.1 µmol/min/mg; in test [4] (15% [C2mim][OAc]) it was 0.6 ± 0.08 µmol/min/mg. Also, the “Sugars produced” value worked out at 3.2 ± 0.2 µmol/min/mg in test [5] (0% [C2mim][OAc]), 3.3 ± 0.2 µmol/min/mg in test [5] (5% [C2mim][OAc]), 3.1 ± 0.2 µmol/min/mg in test [5] (10% [C2mim][OAc]) and 2.9 ± 0.06 µmol/min/mg in test [5] (15% [C2mim][OAc]). In addition, the “activity retained after pre-incubation” value in test [3] amounted to 70%. Besides, the “decrease of the yield of sugars from hydrolysis of pretreated Avicel” value in test [5] came out at 10%.
